{"source": "patent US20250121002A1", "about": "(NOILE IMMUNE BIOTECH, published 2025)", "binders": {"B1": {"name": "third generation anti-EGFRviiiCAR with scFv S#026 VL25VH (SG) of the 1B10-1A12 clone, on PRIME EGFRviii CAR-T cells (other)", "chain": "DVVMTQTPLSLPVSLEDQASISCRSSQSLVHSSGKTYLQWYLQKPGQSPKLLIYSVSNRFSGVPDRFSGSGSGRDFTLKISRVEAEDLGVYFCSQSTHVPWTFGGGTKLEIKSSADDAKKDAAKKDDAKKDDAKKDGQVTLKESGPGILQPSQTLSLTCSFSGFSLSTSGMGVSWIRQPSGKGLEWLAHIFWDDDKRYNPSLKSRLTISKDTSTNQVFLKITSVDTADTATYYCARNYGFDVWGAGTTVTVSS", "notes": "also called PRIME EGFRviii CAR-T cells based on the 1B10-1A12 clone; not shown: rest of the third generation CAR: human CD8 transmembrane region and human CD28-4-1BB-CD3zeta intracellular signal trans"}, "B2": {"name": "anti-EGFRviiiCAR with VL25VH (SG) type scFv based on the 2H9-1B5 clone, on PRIME EGFRviii CAR-T cells (other)", "chain": "B1 chain with M4V, Q27R, S81N, F161L, F191Y, K196T, S204R", "notes": "also called PRIME EGFRviii CAR-T cells based on the 2H9-1B5 clone; not shown: rest of the CAR, produced 'in a manner similar to that based on the 1B10-1A12 clone' (third generation: CD8 transmembran)"}, "B3": {"name": "anti-EGFRviiiCAR with VL25VH (SG) type scFv based on the 3C2-1B10 clone, on PRIME EGFRviii CAR-T cells (other)", "chain": "DVVVTQTPLSLPVSLGDQASISCRSSQSLVHSSGITYLQWYLQKPGQSPKLLIYKVSTRFSGVPDRFSGSGSGTDFTLRISRVEAEELGVYFCSQSTHIPWTFGGGTKLEIKSSADDAKKDAAKKDDAKKDDAKKDGQVTLKESGPGILQPSQTLSLACSFSGFSLSTSGMGVSWIRQPSGKGLEWLAHIYWDDDRRYNPSLKSRLTISRDTSSNQVFLRITSVDTADTATYYCARNYGFDVWGAGTTVTVSS", "notes": "also called PRIME EGFRviii CAR-T cells based on the 3C2-1B10 clone; not shown: rest of the CAR, produced 'in a manner similar to that based on the 1B10-1A12 clone' (third generation: CD8 transmembran)"}}, "note": "Changes are numbered by the printed parent chain."}
{"target": "T1, recombinant EGFRviii protein (UniProt P00533 25-645)", "T1 construct": "EGFRviii is a deletion variant of it; The construct is not described", "test": "flow cytometry; CAR-T cells stained with recombinant EGFRviii protein", "from_the_text": "CytoFLEX S (manufactured by Beckman Coulter, Inc.) was used as the flow cytometer, and FlowJo software (manufactured by Tree Star, Inc.) was used for data analysis.", "units": {"flow cytometer measurement result (percent of cells stained with recombinant EGFRviii protein)": "%"}}
{"binder": "B1", "flow cytometer measurement result (percent of cells stained with recombinant EGFRviii protein)": 32.4}
{"binder": "B2", "flow cytometer measurement result (percent of cells stained with recombinant EGFRviii protein)": 3.6}
{"binder": "B3", "flow cytometer measurement result (percent of cells stained with recombinant EGFRviii protein)": 1.4}
